From US20120027773A1 come the findings set out here.

For experiment [1], the target named is human wild-type RON (cell surface) (human) (UniProt Q04912). Nature of the experiment: FACS, 10 ug/ml, PC3 cells, 4 C; negative control. In general terms: A flow cytometer gives signals particle by particle.
In experiment [2] the target is delta 160 RON variant (cell surface) (human) (UniProt Q04912). Nature of the experiment: FACS, 10 ug/ml, HT-29 cells, 4 C; negative control.

As to murine IgG control (antibody), the PC3 % cell surface binding in experiment [1] was 5.5%. Further, the HT-29 % cell surface binding in experiment [2] came to 5.62%.
